Test results as given in the supplement of paper PMC7877785.
± gives the uncertainty stated by the source.

Test: self-splicing fitness, log relative to wild type (ln ratio); higher = more splicing; Tetrahymena group I intron in knt gene, E. coli kanamycin selection, DiMSum; sequences stand for … in CUCUCU…GGAGGGAAAAGUUAUCAGGCAUGCACCUGGUAGCUAGUCUUUAAACCAAUAGAUUGCAUCGGUUUAAAAGGCAAGACCGUCAAAUUGCGGGAAAGGGGUCAACAGCCGUUCAGUACCAAGUCUCAGGGGAAACUUUGAGAUGGCCUUGCAAAGGGUAUGGUAAUAAGCUGACGGACAUGGUCCUAACCACGCAGCCAAGUCCUAAGUCAACAGAUCUUCUGUUGAUAUGGAUGCAGUUCACAGACUAAAUGUCGGUCGGGGAAGAUGUAUUCUUCUCAUAAGAUAUAGUCGGACCUCUCCUUAAUGGGAGCUAGCGGAUGAAGUGAUGCAACACUGGAGCCGCUGGGAACUAAUUUGUAUGCGAAAGUAUAUUGAUUAGUUUUGGAGUACUCGUGGUCG
In short: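 Library with all eight P1ex-region intron nucleotides randomised, intron inside the knt kanamycin-resistance gene on pET-22b(+), in E. coli BL21(DE3). Cells grew overnight at 37°C or 30°C on LB agar with or without 25 μg/mL kanamycin (plus 100 μg/mL carbenicillin, 50 μM IPTG, 0.2% rhamnose), in six replicate transformations. Pooled colonies were amplicon-sequenced on Illumina HiSeq 2500. DiMSum fitness is the error-weighted combination of wild-type-normalised replicate fold changes, kanamycin versus none.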

Sequence	self-splicing fitness (ln) (30 °C)	self-splicing fitness (ln) (37 °C)
UGUGAGCAAUAUUACGUAGC	-4.22 ± 0.42	-1.65 ± 0.29
UGUGAGCAAUAUUACGUUCU	-3.79 ± 0.33	-3.12 ± 0.4
UGUUAGCAAUAUUACGAAGA		-1.54 ± 0.4
UGUUAGCAAUAUUACGACGG	-0.352 ± 0.16	-0.218 ± 0.18
UGUUAGCAAUAUUACGACUA	0.407 ± 0.22	-0.164 ± 0.19
UGUUAGCAAUAUUACGAGGG	-3.43 ± 0.26	-1.84 ± 0.23
UGUUAGCAAUAUUACGAUUU	-0.79 ± 0.11	-1.55 ± 0.14
UGUUAGCAAUAUUACGCAGA	-0.741 ± 0.46	-0.752 ± 0.3
UGUUAGCAAUAUUACGCAUU	-2.6 ± 0.27	-1.47 ± 0.2
UGUUAGCAAUAUUACGCCAA	-1.32 ± 0.19	-1.4 ± 0.23
UGUUAGCAAUAUUACGCCUU	-0.953 ± 0.37	-1.4 ± 0.33
UGUUAGCAAUAUUACGCGGG	-2.74 ± 0.29	-1.57 ± 0.26
UGUUAGCAAUAUUACGCGUU	-1.38 ± 0.1	-1.01 ± 0.11
UGUUAGCAAUAUUACGCUAG	-1.94 ± 0.5	-1.4 ± 0.47
UGUUAGCAAUAUUACGCUGA	-2.26 ± 0.44	
UGUUAGCAAUAUUACGGCCA	0.385 ± 0.17	0.166 ± 0.14
UGUUAGCAAUAUUACGGUAA	-1.05 ± 0.1	-0.0801 ± 0.097
UGUUAGCAAUAUUACGGUUA	-0.39 ± 0.086	0.504 ± 0.088
UGUUAGCAAUAUUACGUAAC	-1.65 ± 0.46	-1.55 ± 0.5
UGUUAGCAAUAUUACGUACG	-0.624 ± 0.17	0.229 ± 0.22
UGUUAGCAAUAUUACGUGCG	-1.23 ± 0.11	-0.303 ± 0.14

Sequence	self-splicing fitness (ln) (30 °C)	self-splicing fitness (ln) (37 °C)
UGUUAGCAAUAUUACGUGUA	-2.88 ± 0.16	-0.349 ± 0.1
UGUUAGCAAUAUUACGUGUU	-3.3 ± 0.29	-3.27 ± 0.47
UGUUAGCAAUAUUACGUUGU	-3.71 ± 0.28	-2.3 ± 0.17
UUAAAGCAAUAUUACGACAG	0.285 ± 0.1	0.0597 ± 0.14
UUAAAGCAAUAUUACGAGGC	-3.94 ± 0.37	-2.36 ± 0.29
UUAAAGCAAUAUUACGAGGG	-2.1 ± 0.17	-1.12 ± 0.26
UUAAAGCAAUAUUACGAUAU	-1.05 ± 0.11	-0.358 ± 0.13
UUAAAGCAAUAUUACGAUCU	-0.857 ± 0.065	-0.22 ± 0.088
UUAAAGCAAUAUUACGAUGA	0.452 ± 0.081	0.681 ± 0.11
UUAAAGCAAUAUUACGAUGG	0.00244 ± 0.084	0.04 ± 0.1
UUAAAGCAAUAUUACGCCCA	0.818 ± 0.11	0.402 ± 0.14
UUAAAGCAAUAUUACGCGCG	-0.058 ± 0.12	0.00297 ± 0.16
UUAAAGCAAUAUUACGCUAU	-3.01 ± 0.14	-0.748 ± 0.1
UUAAAGCAAUAUUACGCUUA	-1.02 ± 0.083	-0.561 ± 0.11
UUAAAGCAAUAUUACGGAGA	-1.64 ± 0.15	0.00703 ± 0.2
UUAAAGCAAUAUUACGGCUA	0.185 ± 0.091	0.424 ± 0.12
UUAAAGCAAUAUUACGGGGA	-1.02 ± 0.068	0.216 ± 0.1
UUAAAGCAAUAUUACGGGGC	-3.68 ± 0.25	-2.51 ± 0.32
UUAAAGCAAUAUUACGGUCG	0.224 ± 0.082	0.441 ± 0.095
UUAAAGCAAUAUUACGGUUC	-3.46 ± 0.19	-1.81 ± 0.18
UUAAAGCAAUAUUACGUACA	0.237 ± 0.088	0.0455 ± 0.12
